Measured values as given in article PMC4776140, “Stimulation of translation by human Unr requires cold shock domains 2 and 4, and correlates with poly(A) binding protein interaction” (Scientific Reports, 2016).

Target: T1, GST-tagged PABP1 (UniProt P11940 1-636)
T1 construct: also called GST-PABP1; source: E. coli BL21(DE3) from pGEX2T, purified (glutathione Sepharose 4B)
Experiment: pull-down; as the GST pull-down, with 0.1 mg/ml RNase A added to the TnT reaction, 30 min at 30 °C before pull down; value relative to no RNase A
Conditions: one partner purified

B1: wild type Unr, in vitro translated, 35S-labelled (natural protein, human, UniProt O75534-2 1-767, looked up)
chain: MSFDPNLLHNNGHNGYPNGTSAALRETGVIEKLLTSYGFIQCSERQARLFFHCSQYNGNLQDLKVGDDVEFEVSSDRRTGKPIAVKLVKIKQEILPEERMNGQEVFYLTYTPEDVEGNVQLETGDKINFVIDNNKHTGAVSARNIMLLKKKQARCQGVVCAMKEAFGFIERGDVVKEIFFHYSEFKGDLETLQPGDDVEFTIKDRNGKEVATDVRLLPQGTVIFEDISIEHFEGTVTKVIPKVPSKNQNDPLPGRIKVDFVIPKELPFGDKDTKSKVTLLEGDHVRFNISTDRRDKLERATNIEVLSNTFQFTNEAREMGVIAAMRDGFGFIKCVDRDVRMFFHFSEILDGNQLHIADEVEFTVVPDMLSAQRNHAIRIKKLPKGTVSFHSHSDHRFLGTVEKEATFSNPKTTSPNKGKEKEAEDGIIAYDDCGVKLTIAFQAKDVEGSTSPQIGDKVEFSISDKQRPGQQVATCVRLLGRNSNSKRLLGYVATLKDNFGFIETANHDKEIFFHYSEFSGDVDSLELGDMVEYSLSKGKGNKVSAEKVNKTHSVNGITEEADPTIYSGKVIRPLRSVDPTQTEYQGMIEIVEEGDMKGEVYPFGIVGMANKGDCLQKGESVKFQLCVLGQNAQTMAYNITPLRRATVECVKDQFGFINYEVGDSKKLFFHVKEVQDGIELQAGDEVEFSVILNQRTGKCSACNVWRVCEGPKAVAAPRPDRLVNRLKNITLDDASAPRLMVLRQPRGPDNSMGFGAERKIRQAGVID
modifications: radiolabelled with [35S] methionine
notes: numbers count on: Unr protein isoform 2; Same pET21d plasmids as for the histidine-tagged recombinant Unr; also called wt Unr; CSDE1; source: in vitro transcribed/translated from pET21d plasmid (TnT Quick Coupled System, Promega), not purified
  percent pull-down with RNase A relative to no RNase A: 79%
